# Measurements reported in publication PMC9110426, “Cooperative regulation of PBI1 and MAPKs controls WRKY45 transcription factor in rice immunity”.
# T1: Myc-WRKY45 (Oryza sativa (rice), UniProt Q5W6D6 1-326)
# T1 sequence: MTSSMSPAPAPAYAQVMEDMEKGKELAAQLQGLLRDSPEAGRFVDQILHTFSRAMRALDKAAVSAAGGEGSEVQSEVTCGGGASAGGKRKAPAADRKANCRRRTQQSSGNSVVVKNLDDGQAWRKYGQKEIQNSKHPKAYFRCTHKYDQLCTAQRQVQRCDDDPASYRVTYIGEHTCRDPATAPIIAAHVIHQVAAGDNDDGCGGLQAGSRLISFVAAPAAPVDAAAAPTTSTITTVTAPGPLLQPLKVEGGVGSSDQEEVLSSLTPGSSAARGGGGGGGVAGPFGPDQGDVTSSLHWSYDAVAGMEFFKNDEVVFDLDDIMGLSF
# B1: DFA promoter W-box probe (dsDNA)
# DNA 1: AGTTGGCAAAAGCTAAGTACAAGTCATTGTGTGGTCAATTGATCGACTGATCTGTTGCTC
# DNA 2: GAGCAACAGATCAGTCGATCAATTGACCACACAATGACTTGTACTTAGCTTTTGCCAACT
# Molecular target: T1, Myc-WRKY45
# Assay: EMSA; 10 uM ZnCl2; poly(dI-dC); suppressed by excess unlabeled probe (40-fold in Methods, 50-fold in Supplementary Fig. 10c); 25 mM HEPES-KOH pH 7.6, 40 mM KCl, 0.1% Nonidet P-40, 10 uM ZnCl2, 1 mg/mL BSA, 10% glycerol, 1 mM DTT, 0.15 ug poly(dI-dC); 25 min at room temperature; 6% PAGE in Tris-borate at 4 C
# Settings: protein: ivt; tags: Myc; blunt
binder,measurement,value
B1,binding result,binds
